Source: US20120100161A1 (DEUTSCHES KREBSFORSCHUNGSZENTRUM, published 2012)

Target: T1, Epithelial cell adhesion molecule (EpCAM, CD326) (human, UniProt P16422 24-314)
T1 construct: whole, on cells; Endogenous EpCAM on carcinoma cell lines; also called EpCAM antigen
T1 sequence (looked up): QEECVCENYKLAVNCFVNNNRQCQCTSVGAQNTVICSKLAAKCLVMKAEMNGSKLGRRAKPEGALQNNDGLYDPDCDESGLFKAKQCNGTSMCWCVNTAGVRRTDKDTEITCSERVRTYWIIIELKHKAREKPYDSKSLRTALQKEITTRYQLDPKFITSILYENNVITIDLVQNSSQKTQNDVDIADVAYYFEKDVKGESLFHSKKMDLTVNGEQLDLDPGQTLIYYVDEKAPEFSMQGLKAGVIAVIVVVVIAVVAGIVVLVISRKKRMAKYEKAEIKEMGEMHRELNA
Test: binding to EpCAM-expressing cells; method not stated

B1: chimeric antibody huHEA125 (antibody, human IgG1, kappa)
heavy: not shown
light: DILLTQSPAILSVSPGERVSFSCRASQSIGISLHWYQQRPSDSPRLLIKYASESISGIPSRFSGSGSGTDFTLSINSVESEDIADYYCQQSNIWPTTFGAGTKLELKRTVAAPSVFIFPPSDEQLKSGTASVVCLLNNFYPREAKVQWKVDNALQSGNSQESVTEQDSKDSTYSLSSTLTLSKADYEKHKVYACEVTHQGLSSPVTKSFNRGEC
notes: Mouse HEA125 variable domains on human kappa and human IgG1 constant regions; also called unmodified huHEA125 antibody; non-conjugated huHEA125 antibody
Kd: 2.2 nM
